Numbered stars: 1 amine (or outer) side, 2 acyl side, 3 side chain; on linkers, the order of the positions; unused ones are H or OH. Bridge positions count the residues as written; N and C are the ends. Side chains are listed from the residue outwards. Ends that are not written are not given here. * marks the point of attachment. C20 diacid = O=C(O)CCCCCCCCCCCCCCCCCCC(=O)*; γGlu = O=C(O)[C@H](CCC(=O)[*:2])N[*:1]

Assay [1] addresses T1, rat amylin receptor (rat calcitonin receptor + rat RAMP 3) (rat, UniProt P32214 25-516; Q9JJ73 23-147).
T1 construct: whole, on cells; Membranes of transiently transfected BHK tk'ts 13 cells; also called rAmylin-R; rat amylin 3(a) receptor
T1 sequence (looked up) 1: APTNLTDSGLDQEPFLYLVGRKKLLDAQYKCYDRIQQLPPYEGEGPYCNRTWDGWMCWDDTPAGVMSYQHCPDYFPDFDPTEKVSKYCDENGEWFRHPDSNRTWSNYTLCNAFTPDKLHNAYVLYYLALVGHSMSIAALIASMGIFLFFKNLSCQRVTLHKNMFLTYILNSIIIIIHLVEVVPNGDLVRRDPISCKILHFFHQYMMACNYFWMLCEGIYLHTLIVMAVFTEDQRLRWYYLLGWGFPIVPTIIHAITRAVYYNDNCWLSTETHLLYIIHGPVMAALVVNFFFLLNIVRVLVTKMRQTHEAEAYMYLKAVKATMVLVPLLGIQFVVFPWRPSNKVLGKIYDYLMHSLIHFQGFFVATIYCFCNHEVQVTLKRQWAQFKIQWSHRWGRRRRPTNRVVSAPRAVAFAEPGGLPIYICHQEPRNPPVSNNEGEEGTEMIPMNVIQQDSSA
T1 sequence (looked up) 2: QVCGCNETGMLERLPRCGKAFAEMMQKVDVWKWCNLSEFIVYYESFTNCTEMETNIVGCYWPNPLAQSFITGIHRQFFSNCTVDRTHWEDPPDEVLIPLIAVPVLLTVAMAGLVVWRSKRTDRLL
Kind of assay: SPA competition with 125I-rat amylin on membranes of BHK tk'ts 13 cells with rat calcitonin receptor + rat RAMP3 (Assay VI).

Assay [2] concerns the target T2, rat calcitonin receptor (rat, UniProt P32214 25-516).
T2 construct: whole, on cells; Membranes of transiently transfected BHK tk'ts 13 cells; also called rCTR; rat calcitonin (a) receptor
T2 sequence (looked up): T1 sequence (looked up) 1
Kind of assay: SPA competition with 125I-calcitonin on membranes of BHK tk'ts 13 cells with rat calcitonin receptor (Assay VIII).

Assay [3] has as its target T2, rat calcitonin receptor. Kind of assay: ratio of IC50 on rat calcitonin receptor to IC50 on rat amylin receptor (reference m40).
In assay [4] the target is T3, human calcitonin receptor (human, UniProt P30988 25-474).
T3 construct: whole, on cells; Membranes of stably transfected cells; also called hCTR; hCT
T3 sequence (looked up): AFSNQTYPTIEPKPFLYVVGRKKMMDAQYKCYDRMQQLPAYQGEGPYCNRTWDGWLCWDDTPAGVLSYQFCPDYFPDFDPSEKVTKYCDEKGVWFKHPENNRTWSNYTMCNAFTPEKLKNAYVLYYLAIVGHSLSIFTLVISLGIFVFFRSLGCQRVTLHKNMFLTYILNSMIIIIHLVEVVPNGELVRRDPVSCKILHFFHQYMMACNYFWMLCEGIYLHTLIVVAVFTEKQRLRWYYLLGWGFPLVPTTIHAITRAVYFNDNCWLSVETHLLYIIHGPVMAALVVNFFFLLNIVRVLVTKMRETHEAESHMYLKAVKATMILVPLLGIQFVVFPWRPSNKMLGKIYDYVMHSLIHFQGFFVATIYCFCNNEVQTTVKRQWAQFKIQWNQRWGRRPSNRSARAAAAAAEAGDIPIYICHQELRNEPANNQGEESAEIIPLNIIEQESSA
Kind of assay: ratio of IC50 on human calcitonin receptor to IC50 on human amylin receptor (reference m42), SPA competition. A digest of the protocol:
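Competition binding by SPA uses membrane preparations (35 ng/μL final) in pH 7.4 Hepes buffer with 1 mM CaCl2 and 5 mM MgCl₂. Incubation lasts 120 min at 25° C, and IC₅₀ comes from one-site fitting.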

B1: N^ε1-[(4S)-4-carboxy-4-(19-carboxynonadecanoylamino)butanoyl]-[Glu14,Arg17,Pro21,Pro27,Pro34,Glu35]-h-amylin (peptide)
peptide: K([γGlu-C20 diacid])CNTATCATQRLAEFLRHSSPNFGAIPSSTNVGPETY-NH2
modifications: disulfide 2-7; N-terminus assumed
SMILES: CC[C@H](C)[C@H](NC(=O)[C@H](C)NC(=O)CNC(=O)[C@H](Cc1ccccc1)NC(=O)[C@H](CC(N)=O)NC(=O)[C@@H]1CCCN1C(=O)[C@H](CO)NC(=O)[C@H](CO)NC(=O)[C@H](Cc1c[nH]cn1)NC(=O)[C@H](CCCNC(=N)N)NC(=O)[C@H](CC(C)C)NC(=O)[C@H](Cc1ccccc1)NC(=O)[C@H](CCC(=O)O)NC(=O)[C@H](C)NC(=O)[C@H](CC(C)C)NC(=O)[C@H](CCCNC(=N)N)NC(=O)[C@H](CCC(N)=O)NC(=O)[C@@H](NC(=O)[C@H](C)NC(=O)[C@@H]1CSSC[C@H](NC(=O)[C@@H](N)CCCCNC(=O)CC[C@H](NC(=O)CCCCCCCCCCCCCCCCCCC(=O)O)C(=O)O)C(=O)N[C@@H](CC(N)=O)C(=O)N[C@@H]([C@@H](C)O)C(=O)N[C@@H](C)C(=O)N[C@@H]([C@@H](C)O)C(=O)N1)[C@@H](C)O)C(=O)N1CCC[C@H]1C(=O)N[C@@H](CO)C(=O)N[C@@H](CO)C(=O)N[C@H](C(=O)N[C@@H](CC(N)=O)C(=O)N[C@H](C(=O)NCC(=O)N1CCC[C@H]1C(=O)N[C@@H](CCC(=O)O)C(=O)N[C@H](C(=O)N[C@@H](Cc1ccc(O)cc1)C(N)=O)[C@@H](C)O)C(C)C)[C@@H](C)O
notes: Synthetic acylated analogue of human amylin
In general, IC50 refers to the concentration that gives 50% inhibition. B1: the 50% inhibitory concentration (IC50) in assay [1] amounted to 0.164 nM; in assay [2], 10.4 nM. In addition, the “Ratio rCT/rAmylin binding” value in assay [3] came out at 63.2. Also, the “Ratio hCT/hAmylin binding” value in assay [4] came out at 13.3.

B2: N^-1-[(4S)-4-carboxy-4-(19-carboxynonadecanoylamino)butanoyl]-Gly[Arg1,Ala14,Arg17,Pro21,Pro27,Pro34]-h-amylin (peptide)
peptide: {C20 diacid-γGlu}-GRCNTATCATQRLAAFLRHSSPNFGAIPSSTNVGPNTY-NH2
modifications: disulfide 3-8
notes: Synthetic acylated analogue of human amylin, extended by Gly at position -1
In the case of B2, the results for the 50% inhibitory concentration (IC50) in assay [1] and in assay [2] were 0.436 nM and 56.3 nM, respectively. Further, the “Ratio rCT/rAmylin binding” value in assay [3] was 129. For the same molecule, the “Ratio hCT/hAmylin binding” value in assay [4] was found to be 26.5.

B3: N^-1-[(4S)-4-carboxy-4-(19-carboxynonadecanoylamino)butanoyl]-Gly[Arg1,His14,Arg17,Pro21,Pro27,Pro34]-h-amylin (peptide)
peptide: {C20 diacid-γGlu}-GRCNTATCATQRLAHFLRHSSPNFGAIPSSTNVGPNTY-NH2
modifications: disulfide 3-8
SMILES: CC[C@H](C)[C@H](NC(=O)[C@H](C)NC(=O)CNC(=O)[C@H](Cc1ccccc1)NC(=O)[C@H](CC(N)=O)NC(=O)[C@@H]1CCCN1C(=O)[C@H](CO)NC(=O)[C@H](CO)NC(=O)[C@H](Cc1c[nH]cn1)NC(=O)[C@H](CCCNC(=N)N)NC(=O)[C@H](CC(C)C)NC(=O)[C@H](Cc1ccccc1)NC(=O)[C@H](Cc1c[nH]cn1)NC(=O)[C@H](C)NC(=O)[C@H](CC(C)C)NC(=O)[C@H](CCCNC(=N)N)NC(=O)[C@H](CCC(N)=O)NC(=O)[C@@H](NC(=O)[C@H](C)NC(=O)[C@@H]1CSSC[C@H](NC(=O)[C@H](CCCNC(=N)N)NC(=O)CNC(=O)CC[C@H](NC(=O)CCCCCCCCCCCCCCCCCCC(=O)O)C(=O)O)C(=O)N[C@@H](CC(N)=O)C(=O)N[C@@H]([C@@H](C)O)C(=O)N[C@@H](C)C(=O)N[C@@H]([C@@H](C)O)C(=O)N1)[C@@H](C)O)C(=O)N1CCC[C@H]1C(=O)N[C@@H](CO)C(=O)N[C@@H](CO)C(=O)N[C@H](C(=O)N[C@@H](CC(N)=O)C(=O)N[C@H](C(=O)NCC(=O)N1CCC[C@H]1C(=O)N[C@@H](CC(N)=O)C(=O)N[C@H](C(=O)N[C@@H](Cc1ccc(O)cc1)C(N)=O)[C@@H](C)O)C(C)C)[C@@H](C)O
notes: as for B2
On to B3, for which the IC50 in assay [1] came to 0.674 nM; in assay [2] it was 65.9 nM. In assay [3], the “Ratio rCT/rAmylin binding” value was 97.7. Besides, the “Ratio hCT/hAmylin binding” value in assay [4] amounted to 36.2.

B4: N{-1}-[(4S)-4-carboxy-4-(19-carboxynonadecanoylamino)butanoyl]-Gly[Arg1,His14,Arg17,Pro21,Pro27]-h-amylin (peptide)
peptide: {C20 diacid-γGlu}-GRCNTATCATQRLAHFLRHSSPNFGAIPSSTNVGSNTY-NH2
modifications: disulfide 3-8
SMILES: CC[C@H](C)[C@H](NC(=O)[C@H](C)NC(=O)CNC(=O)[C@H](Cc1ccccc1)NC(=O)[C@H](CC(N)=O)NC(=O)[C@@H]1CCCN1C(=O)[C@H](CO)NC(=O)[C@H](CO)NC(=O)[C@H](Cc1c[nH]cn1)NC(=O)[C@H](CCCNC(=N)N)NC(=O)[C@H](CC(C)C)NC(=O)[C@H](Cc1ccccc1)NC(=O)[C@H](Cc1c[nH]cn1)NC(=O)[C@H](C)NC(=O)[C@H](CC(C)C)NC(=O)[C@H](CCCNC(=N)N)NC(=O)[C@H](CCC(N)=O)NC(=O)[C@@H](NC(=O)[C@H](C)NC(=O)[C@@H]1CSSC[C@H](NC(=O)[C@H](CCCNC(=N)N)NC(=O)CNC(=O)CC[C@H](NC(=O)CCCCCCCCCCCCCCCCCCC(=O)O)C(=O)O)C(=O)N[C@@H](CC(N)=O)C(=O)N[C@@H]([C@@H](C)O)C(=O)N[C@@H](C)C(=O)N[C@@H]([C@@H](C)O)C(=O)N1)[C@@H](C)O)C(=O)N1CCC[C@H]1C(=O)N[C@@H](CO)C(=O)N[C@@H](CO)C(=O)N[C@H](C(=O)N[C@@H](CC(N)=O)C(=O)N[C@H](C(=O)NCC(=O)N[C@@H](CO)C(=O)N[C@@H](CC(N)=O)C(=O)N[C@H](C(=O)N[C@@H](Cc1ccc(O)cc1)C(N)=O)[C@@H](C)O)C(C)C)[C@@H](C)O
notes: Synthetic acylated analogue of human amylin, extended by Gly at position -1; also called compound 99
For B4, the IC50 came to 2.7 nM in assay [1] and 216 nM in assay [2]. Moreover, the “Ratio rCT/rAmylin binding” value in assay [3] is 79.8. Besides, the “Ratio hCT/hAmylin binding” value in assay [4] was 100.
